Publication PMC12115182, “Inhibition of RPA32 and Cytotoxic Effects of the Carnivorous Plant Sarracenia purpurea Root Extract in Non-Small-Cell Lung Cancer Cells”

Target: huRPA32 (human RPA32) (human, UniProt P15927 1-270)
Assay: EMSA; [Protein]50 by linear interpolation; DNA 30 fmol/uL; no extract; 40 mM Tris-HCl pH 7.5, 50 mM NaCl, 37 C, 60 min; 8% native PAGE in TBE, 100 V 1 h
Settings: protein: recombinant; single-stranded

Sequence of huRPA32 (human RPA32) (P15927 whole entry): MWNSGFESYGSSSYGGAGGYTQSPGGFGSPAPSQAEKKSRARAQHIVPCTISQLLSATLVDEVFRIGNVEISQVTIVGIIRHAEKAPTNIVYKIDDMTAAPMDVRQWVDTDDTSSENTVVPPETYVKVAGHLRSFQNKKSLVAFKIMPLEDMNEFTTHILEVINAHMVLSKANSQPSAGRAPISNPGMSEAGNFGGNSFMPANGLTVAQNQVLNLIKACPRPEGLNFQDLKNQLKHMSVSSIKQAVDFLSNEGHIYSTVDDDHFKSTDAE

## TTTTTTTTTTTTTTTTTTTTTTTTT (ssDNA) [dT25]
  apparent K (half saturation): 5.7 ± 0.6 µM
